Consider 5 molecules from publication PMC3965691 (Biochemistry, 2011).

Positions count from the first letter of the chain named. Names may count otherwise.

T1: HI-2(1-152) (human, UniProt P41236 1-152)
T1 sequence (looked up): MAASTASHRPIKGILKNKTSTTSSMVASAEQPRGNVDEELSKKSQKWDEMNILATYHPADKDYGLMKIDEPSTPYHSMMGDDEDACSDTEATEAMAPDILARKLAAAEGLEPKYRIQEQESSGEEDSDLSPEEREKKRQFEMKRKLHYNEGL

B1: His6-HI-2 (human phosphatase inhibitor-2, wild type, full length) (natural protein, UniProt P41236 1-205, looked up)
chain: MAASTASHRPIKGILKNKTSTTSSMVASAEQPRGNVDEELSKKSQKWDEMNILATYHPADKDYGLMKIDEPSTPYHSMMGDDEDACSDTEATEAMAPDILARKLAAAEGLEPKYRIQEQESSGEEDSDLSPEEREKKRQFEMKRKLHYNEGLNIKLARQLISKDLHDDDEDEEMLETADGESMNTEESNQGSTPSDQQQNKLRSS
B2: GST-Pin1iso (human Pin1 isomerase domain, residues 46-163, fused to GST) (domain or fragment, UniProt Q13526 46-163, looked up)
chain: KNGQGEPARVRCSHLLVKHSQSRRPSSWRQEKITRTKEEALELINGYIQKIKSGEEDFESLASQFSDCSSAKARGDLGAFSRGQMQKPFEDASFALRTGEMSGPVFTDSGIHIILRTE
B3: HI-2(I68A) (natural protein, human, UniProt P41236 1-205, looked up)
chain: B1 chain with I68A

One assay concerns the target T1, HI-2(1-152). The experiment in a line: pull-down.
Assay [1] concerns the target B1. As to the kind of experiment: pull-down.
Assay [2] concerns the target Pin1 free of GST (thrombin-cleaved GST-Pin1) (human, UniProt Q13526 1-163). The experiment in a line: SEC.
The target of the assay “HI-2(I68A)” is B3. As to the kind of experiment: pull-down.

Turning to MADEEKLPPGWEKRMSRSSGRVYYFNHITNASQWERPSGNSSSG (domain or fragment, UniProt Q13526 1-44, looked up) [GST-Pin1ww (human Pin1 WW domain, residues 1-44, fused to GST)], the binding result (with HI-2(1-152); in assay [1]) was “binds” in each case.
For B1, in assay [2], the “stoichiometry N” value was 1 I-2 per Pin1 (2:2).
Take B2: the binding result in the assay with HI-2(I68A) is “binds”.
B3: the “stoichiometry N” value in assay [2] is 1 I-2 per Pin1 (1:1).
MADEEKLPPGWEKRMSRSSGRVYYFNHITNASQWERPSGNSSSG (domain or fragment, human, UniProt Q13526 1-44, looked up, phosphoserine at 16 (PKA)) [PKA phosphorylated GST-Pin1ww]: in assay [1], the binding result is listed as “binds”.
